Assay: label from the status in PepcDB records

Sequence	protein production
MGPKVSVITVCYNAEEFIENAIYSVLNQSYENIEYIIIDGASKDNTVSIINKYRSVMACFISEPDKGMYEAMNKGIKAATGDILYFLNSDDVFYDEYVVENVVKVFQKNNNVELIYGPIIIRDPTTNESFIKPHDYITKSYFIYNSICQQGIFYKASVFNKCGQFNDTYKIVGDYEWELRAFYKYNIKRKYYEGIIAIFRDGGMCNCDKFSDLHAKERTKVIKEYFNIFVIYKYKFLLFCRSAIKRLELEHHHHHH	failed
MLIKSIKLTNILSFGEAAETIELRPLNVVIGPNGSGKSNLIAAIELFRALPKDAPAFFRREGGIHDWLWKGGEIPPVATIESVFDEKGPLSGLRYALRFTVVGQHFEIIEERIEEEAAEGAQTPPPYHFKDGRGALRALLANEGEIKAWSFVIPSEIDPTQSILAQRKDPHQYPELTSLGAVLPTMRCYREWTMGPQSPPRQDQKTDLRNDYLDPYGAGNLALVLQRLGNKPALKKRFLEALRLLYEGIDDYGVTIEGGTSQIFFHEGGRFTIPASRLSDGTLRYLCLLAILLDPAPPPLLCIEEPELGLHPDILPTLADLLKEASERTQVIVTTHSDGLVDAMTDRPEAVLIAEKNENGTTLTRLDGETLKPWLAKYRLGELWTRGGIGGTRWLEHHHHHH	failed
EERRVAYPVLRELTERTGETSALMVWNGNESMCVEQIPSRHQVKHLAPLGARYNEALSSSVQVFLASENEDRVRQLLRSGSITLTGVDEDAVEAYLLRLKESMERGWAVNFGETSIEEVGVASPVYDHRGNMVASVLIPAPKFRVSQDTLNSLGEACAAAAAKVTTRLGGRAPH	not failed
WMLGIPIGGLLAFILGGAALSVFHFGMDYTNRNEFCYSCHIGMDTIVEEYQASPHFKNAQGVIAATCSDCHVPREFFAKIALKIGATADIYHKLKGDITLDNFEAEHRPRLAAEVTQQFIENKSKQCRYCHSVDKMDFEAQGRTVARRHQMMESRDQSCIDCHAGIAHHLPISLDSPET	failed
MMFDFDKIIERQSDKCRKWDHAFVCSRFGDVPESFIPLWIADMDFTSPPAVIDGFRRIVEHGTFGYTWCFDEFYDAVIAFQRKRHQVEVEKSWITLTYGTVSTLHYTIQAYCKPGDSVMMNTPVYDPFAMAAQRQGVQVLANPLRVEENRYQLDFNLIEEQLKTYRPTLWFFCSPHNPSGRIWREEEIRQVSDLCQRYGTILVVDEVHAEHILDGKFVSCLTSGCAAQDNLIVLTSPNKALKLGGLKTSYSMIPDDSLRQRFRQQLEKNSITSPNLFGVWGIILAYQHGLPWLDALNDYLQGNARYLADALQTHFPAWKMMTPESSYLAWIDVSADESSATQLTQHFARQAGVVIEDGSHYVQNGENYLQINFGSQRYWLERSTNRMQ	failed
MKRKHLSGKSIGIVFGTFAPMHVGHVDLITKEKRANDNVLVIVSGSNTQKDRGTRTGLSLNRRFRNVREIFYDDELIVVDKLDEADMPPYPEGWVPWVNRVKDLITKNTDGPEKITFYVGESEYVIELNRYYPQAQVELIECSVINISATEIRDNPIENWRFITKPFRRHF	failed
MASFCNSWKRKHNEAIKLSEEIDGMILERSSLAETSSYARGHASYMRRKITILANGVQTLKNLLAESQGKSISAKEMSRCKDMVEDLRSKAYQMASALDMLKFSNIGSLLGQDDIMSRVIDMDNQEIVGFQRTTMKGKLKGVMHLKREALAMNMELGLQTRLIDRLDHHVDVSASDVEELQRSIDTGVCMTLLLSVVVVVFGLSEFVKFGRRRILG	failed
MKAAEKYAKDVVAGKILVCKWIMLLAQRHLDDLAVSKRKDFPYKFDPAKAEKVAKFLQLLPHTKGKWGGKKQLIKLEPWQLFSVCVPFGWVRKKDGTRRYRTILVFVPRKNGKSIIGGGVGLYMFVADGEFGAEVYSGATTEKQAWEVFRPAKLMVERTDDLREHYGVDVNASNMVVLADGSRFEPVIGKPGDGSSPSCSVVDEYHEHQDSTLYDTMETGMGAREQPIMLVITTAGSSIGGPCHQLIRDSERMLEGVIDRPDLWPALYTIDQGDDWTSEIALRKANPNFGISVAEDFLLARQRDAMQSATKQATFRTKHLNEWVGAKNAWLNMLRWKEAPVRKSLAELEGRSCYGSLDLASKIDIAANLLIFPPHGDDPFWHIHARYYLPEARVLEELDSNTARYREFDALGLLTLTDGEVTDFEVIKEDMREFAGRFDIRAYAYDPWQATQLAQEMDAEGLPMVELRQTVQNLSEPMKEVEALVLQRKLAHGDCPVLTWMASNVVAKLDVKDNIYPNKERPENKIDGMVSLITGCAVAIKLGIDDSGHFDDFLASPIVVG	failed
MILSMSGVVLLGIVVFLFFRKDGLKGTHACTCALFGFYLSSTAIAPSIKAGGASLASLLGGIRF	failed
MKQKSLNPLSSSSPNYDEMIQENFKPHWIIGIDPNLSGALAVLKFDDKGSCFAQVYDTPQLEVVVQNIRTRSFNEKSMLELIRSLDVPSGTKAFVAKYIHPENAITAYNDGLGCGLWTLLTSSISVIYVTPSTWDKHFNLSIWSLDGGRKLALEMFPSLKLTTKIDDNARANALLIAAYGHATSDTRYYSFSQIK	failed
TIDLNYQNKVESILKQYYGSELSSGRASFSEGMYAVAIEPSTGKVLAMAGLKNDHGNLVDDSLGTIAKNFTPGSVVKGATLSSGWENKVLRGNEVLYDQEIANIRSWFTRGLTPISAAQALEYSSNTYMVQVALRLMGQDYNTGDALTDRGYQEAMAKLRKTYGEYGLGVSTGLDLPESEGYVPGKYSLGTTLMESFGQYDAYTPMQLGQYISTIANNGNRLAPHVVSDIYEGNDSNKFAQLVRSITPKTLNKIAISDQELAIIQEGFYNVVNSGSGYATGTSMRGNVTTISGKTGTAETFAKNVNGQTVSTYNLNAIAYDTNRKIAVAVMYPHVTTDTTKSHQLVARDMIDQYISQFTGQ	failed
MAFSPLCGVNCTSRPSASTINTFLTKAQHDVTLTDTDTRIFIKNIKTGVTMEQFRNSLQEFGAMQVYFYEPGSNNDGWAWVGFENKEAALKVIEESEKMQEEMNEENLNEMQNEDNEEQGSNSFYAEDEDKKDEEEEEEEEEY	failed
MTDQLQHIRKPPRTGKAARSGTQDEIVYAHIFDAILEQRLAPGTKLSEEALGEIFGVSRTIIRRALSRLAHEQVVLLRPNRGAVVASPSIDEARQILFARRTVERAITELATDNATAERLAEL	failed
MTNKYIKLCFIDLVDLKKMSKQNLKIVLFHGFMAREHMQRHWLCYLKKLGYSDIHLYGHLSSAEMLAKQIHSTQNSAQKLVLFGYSQGGFQAVKVAQAFEQLQLPVDLLITIAAGGKGRLLPKQWHYNPRHIPQNVVKSLNFFSLSDSLGTDRCYRDNLIQASHHDQCIENIIFDQSAQVGHIELSRCYSKQRIHGLVKQHLISRIEYELSILE	failed
VTEEEIHAMLEEGSVAGIIEQQEHEMVRNVFRLDDRQLGSLMVPRADIIYLDTALPLEENMKRVVESEHSRFPVCHNGLQSLLGVVNAKQLLAQTIKGGVTNLAEHLQPCVYVPETLTGMELLDHFRTSGTQMVFVVDEYGEIQGLVTLQDMLEAVTGEFA	not failed
MKLESNAFEKAFSSDPAPLGLAGFAFTTFLLSFINAGLIPASGVNVVVPLAIAYGGLAQLITGSWEMRRGNNFGFTAFTSYGSFWIFYALMVILADLHIINALPAVAVGWALILWGIFTLYMWGGAMMASMSLNLTFLFLWLTFVVLGLGAIYSSVALTHAGGYLGILSAFFAAYTSFAIIINSMKPGTIPVGPGMFHKKAGK	failed
MMLSMNRELIYLMLIFALLVIPRALQRFMVPAPLTCLLFGIGTMLVMGGKPHDDVIVLLSTLGISSLFLFAGLEVDLKALRRELWPLGVHLLVYSVALFCLGWLVWRYVGLTWQVAGLLALALLTPSPGFIIDSIGRLGLNEHERFWVVNKAIASELLALTVLFFVLQASDPWQMALSSGVLVALFVCLPLLFVALDRWVVPQAPGSEFSLLVMVGMIAAYATYKIGVYYLVGAFITGLIARLLHQRMPHLASEENLNAVRLFASFFVPFYFFRAGTNVSPQALSFEALGLGILITMVVLPLRIAVIWVQRRVLFGKGEDFRSSLRVSLALVPTLIFTLVLAGILRDRFSISEVLFGALLLYAAFTTLLPSLIFRLLSAWGVPSRSGDQASRETLPSSGMAG	failed
MKKIAIFGSAFNPPSLGHKSVIESLSHFDLVLLEPSIAHAWGKNMLDYPIRCKLVDAFIKDMGLSNVQRSDLEQALYQPGQSVTTYALLEKIQEIYPTADITFVIGPDNFFKFAKFYKAEEITERWTVMACPEKVKIRSTDIRNALIEGKDISTYTTPTVSELLLNEGLYRETLSGK	not failed
MMNGENMDKQTVIGFVVLFCVLELVFYLKKLYQSMALTLAVFGIFSLLFFLLYIPVLSKKAVPYVINYFKPPHQRVREIKVGSDETTDNSIIRLKEKAKTLHPDEGNRISGRSSNSFKDSASCIITIVDDSN	failed
PWQHFIIGSLFGWVHKETKLRRFKEALIFMGRKNGKTTTISGVANYAVSQDGENGAEIHLLANVMKQARILFDESKAMIKASPKLDKNFRTLRDEIHYDATISKIMPQASDSDKLDGLNTHMGIFDEIHEFKDYKLISVIKNSRAARLQPLLIYITTAGYQLDGPLVDMVEAGRDTLDQIIEDERTFYYLASLDDDDDINDSSNWIKANPNLGVSINLDEMKEEWEKAKRTPAERGDFITKRFNIFANNDEMSFIDYPTLQKNNEIVSLEELEGRPCTIGYDLSETEDFTAACATFALDNGKVAVLSHSWIPKHKVEYSNEKIPYREWEEDGLLTVQDKPYIDYQDVLNWIIKMNEHYVVEKITYDRANAFKLNQELKNYGFETEETRQGALTLSPALKDLKEMFLDGKIIFNNNPLMKWYINNVQLKLDRNGNWLPSKQSRYRKIDGFAAFLNTYTDIMNKVVSDKGEGNIEFISIKDIMR	failed
RPAIRKRLLKPKVLDSSPRALVGHRAEVLEDVGATSGQVRLDGSIWSARSMDPTHTFAEGEIVSVIDIQGTTAIVWKEA	not failed
MRFLSLVGNSFGCSASGERLVSAARDGDLQEAKALLDYNPRLARYSTFGVRNSPLHYSAAQGHHEIVSLLVESGVDINLRNYRGQTALMQACQHGHWEVVLILILFGANIHRSDYLNGGTALHLAALNGHPRCIRILLSEYIPSVPNCWSLLKNKKTSVAGFDSSVLHEVINRAADGGITPLHVAALNGHIETVQLLLDLGASVTQVTVEDGTTIDLIGAGSTALHYASCGGNTQCCQLLISKGACLAAVNSNGWTPMMVARSWHRNWLEEILNPTTEQPQLHLPNVPSPFLCLPLMSIVNIAQECGWRENDCLTPCRDPCAVCLERKCTVAADGCAHEFCTNCALYLSTTSITSSKTSNVTPGSVPCPLCRNGIVSFTKLPHTTATTRTSTSSRTSISLSFCTCSSDVLDTALLTNPHYSCKPVVSRTGSRTPQSARSSAFRSLSCRRFPPSLCLGGSDVDEPRSRLIGGSYSRSGVGFRRSTSQVEGKRSWFSALNHCVTTGGSAC	failed
MELVVGRVVKSHGVTGEVVVEIRTDDPADRFAPGTRLRAKGPFDGGAEGSAVSYVIESVRQHGGRLLVRLAGVADRDAADALRGSLFVIDADDLPPIDEPDTYYDHQLVGLMVQTATGEGVGVVTEVVHTAAGELLAVKRDSDEVLVPFVRAIVTSVSLDDGIVEIDPPHGLLNLE	failed
